Columns and labels:
[1] = molecular target: Fc receptors on the surface of THP1 cells (Fc bearing human myeloid/monocytic cell line) (human); assay: cell-based or functional assay
[2] = molecular target: Fc receptors on the surface of THP1 cells (Fc bearing human myeloid/monocytic cell line) (human); assay: FACS, mean fluorescence intensity of AF-647 labeled protein bound to THP1 cells

## RNase-Fc fusion protein with a mutant Fc (P238S, P331S) (mtRNasemgIgG)
[1]
  cell death of THP1 cells by FACS, RNase Fc mutant compared to wild type: 3 to 5 fold
  fold decrease in cell death of THP1 cells (Annexin V binding and propidium iodide binding), RNase-Fc mutant compared to RNase-wild type Fc fusion protein: 3 fold

## RSLV-132 (wthRNase-SCC-mthIgG1 P238S P331S) (Fc fusion)
[2]
  fold reduction in Fc receptor binding relative to RSLV-124: > 4 fold
